In PMC10783015:

What was measured:
[1] = target: T1, CRP (Salmonella enterica serovar Typhimurium ATCC 14028) (UniProt P0A2T6); assay: SPR; details: EMSA: 100 ng DNA in 1x TBE, 20 uL, 45 min at room temperature, 12% native PAGE, PargS competitor, 20 uM cAMP for CRP; SPR: streptavidin chip with biotinylated …
T1 sequence: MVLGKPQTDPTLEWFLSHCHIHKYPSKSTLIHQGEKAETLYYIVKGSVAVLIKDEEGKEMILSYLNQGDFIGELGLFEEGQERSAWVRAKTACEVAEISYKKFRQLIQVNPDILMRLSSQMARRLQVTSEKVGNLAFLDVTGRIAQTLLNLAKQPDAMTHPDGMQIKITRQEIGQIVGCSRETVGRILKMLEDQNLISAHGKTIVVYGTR

[2] = target: T2, H-NS (Salmonella enterica serovar Typhimurium ATCC 14028) (UniProt P0A1S2); assay: SPR; details: EMSA: 100 ng DNA in 1x TBE, 20 uL, 45 min at room temperature, 12% native PAGE, PargS competitor, 20 uM cAMP for CRP; SPR: streptavidin chip with biotinylated …
T2 sequence: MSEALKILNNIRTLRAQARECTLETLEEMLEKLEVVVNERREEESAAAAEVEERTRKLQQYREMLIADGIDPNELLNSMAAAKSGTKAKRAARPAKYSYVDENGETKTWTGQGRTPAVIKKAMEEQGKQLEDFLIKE

Row | Sequence | binding [1] | binding [2] | Kd [1] [nM]
1 | CTTATGTCGGTCATTGCCGTAGCGCTGCCGACGATCTTATAGCTATTGAGAACTCTCGTTTCACAACCTATGTTTTAATTTCAAAACGATCAATAATGAAACTTATGTTTTGTTATGGGTATCACATTTCGAATTTCATAATCCTGGCGTTTTTTATCGTT (double strand) [PiolT1 SPR] | no binding | – | –
2 | AAGAGCCTGAATATTCACCGGAATACCTTACGTTTATGAAGCGGGCTGTATTGCCCGCGCCAGTTTAAGAATTAGGGCGGGAGTATACTGCAAATGCCCGTTGGCGTCAGCATTGCGCGCGCGGCGCGTCGCCTGAAATATACGCAACAATAATCTGCATAAGCATTCAATAAACGCCCAATCAAATCAAAGGTTG (double strand) [PargS SPR] | – | no binding | 1
